From paper PMC12683673 (RSC Chemical Biology, 2025)

Experiments:
[1] = biological target: the molecule itself; test: negative-stain electron microscopy
[2] = biological target: the molecule itself; test: SEC

B1: ClpX^ΔN unfoldase from Thermus thermophilus (lacks the first 52 residues) (domain or fragment)
chain: not shown
[1]
  stoichiometry N: 6

B2: ClpP protease from Thermus thermophilus (tetradecameric ClpP14, 300 kDa) (enzyme)
chain: not shown
[2]
  stoichiometry N: 14
